Measured values published in patent US20220064329A1 (Novo Nordisk, published 2022).

T1: recombinant human activated Factor VII (FVIIa) (human, UniProt P08709 61-212; P08709 213-466, ten glutamate residues of the Gla domain may be gamma-carboxylated)
T1 construct: chains tethered by a disulfide bond; also called Factor VIIa; rFVIIa
T1 sequence 1: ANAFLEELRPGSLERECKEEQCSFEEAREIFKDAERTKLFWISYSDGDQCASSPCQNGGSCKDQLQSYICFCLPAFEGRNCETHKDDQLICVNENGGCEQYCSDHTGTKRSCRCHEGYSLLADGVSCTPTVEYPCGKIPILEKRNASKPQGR
T1 sequence 2: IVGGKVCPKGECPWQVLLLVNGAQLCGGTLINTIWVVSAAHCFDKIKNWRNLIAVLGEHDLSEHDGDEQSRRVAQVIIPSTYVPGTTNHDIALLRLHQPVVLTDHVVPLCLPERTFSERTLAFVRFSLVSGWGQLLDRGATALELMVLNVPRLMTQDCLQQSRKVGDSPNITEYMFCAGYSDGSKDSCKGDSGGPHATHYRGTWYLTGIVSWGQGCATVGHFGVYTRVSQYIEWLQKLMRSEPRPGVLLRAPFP


Biological target: T1, recombinant human activated Factor VII …
Experiment: BLI (Fortebio)

Row | Binder | Kd [nM]
1 | VH SEQ ID NO 546 / VL SEQ ID NO 318 (antibody, IgG4, V domains shown, humanized 11F2; IgG4 S228P/kappa) VH: QVQLQESGPGLVEPSQTLSLTCTVSGYSITSDSAWSWIRQPPGKKLEWIGYIQYSGSTNYNPSLKSRVTISRDTSKNQFSLKLSSVTAADTAVYYCARSVNYYGNSFAVGYWGQGTSVTVSS VL: EIVLTQSPATLSLSPGERATLSCRASQGISDYLHWYQQKPGEAPRLLIKYTSQPATGIPARFSGSGSGTDFTLTISSLEPEDFAVYYCQNGHSFPLTFGQGTKLEIK | 0.86
2 | VH SEQ ID NO 546 / VL SEQ ID NO 334 (antibody, IgG4, V domains shown, humanized 11F2; IgG4 S228P/kappa) VH: QVQLQESGPGLVEPSQTLSLTCTVSGYSITSDSAWSWIRQPPGKKLEWIGYIQYSGSTNYNPSLKSRVTISRDTSKNQFSLKLSSVTAADTAVYYCARSVNYYGNSFAVGYWGQGTSVTVSS VL: EIVLTQSPATLSLSPGERATLSCRASQGISDYLHWYQQKPGQAPRLLIKYASQPATGIPARFSGSGSGTDFTLTISSLEPEDFAVYYCQNGHSFPLTFGQGTKLEIK | 1.1
3 | VH SEQ ID NO 546 / VL SEQ ID NO 390 (antibody, IgG4, V domains shown, humanized 11F2; IgG4 S228P/kappa) VH: QVQLQESGPGLVEPSQTLSLTCTVSGYSITSDSAWSWIRQPPGKKLEWIGYIQYSGSTNYNPSLKSRVTISRDTSKNQFSLKLSSVTAADTAVYYCARSVNYYGNSFAVGYWGQGTSVTVSS VL: EIVLTQSPATLSLSPGERATLSCRASQGVSDYLAWYQQKPGEAPRLLIKYASQPATGIPARFSGSGSGTDFTLTISSLEPEDFAVYYCQNGHSFPLTFGQGTKLEIK | 7
4 | VH SEQ ID NO 546 / VL SEQ ID NO 366 (antibody, IgG4, V domains shown, humanized 11F2; IgG4 S228P/kappa) VH: QVQLQESGPGLVEPSQTLSLTCTVSGYSITSDSAWSWIRQPPGKKLEWIGYIQYSGSTNYNPSLKSRVTISRDTSKNQFSLKLSSVTAADTAVYYCARSVNYYGNSFAVGYWGQGTSVTVSS VL: EIVLTQSPATLSLSPGERATLSCRASQGLSDYLAWYQQKPGEAPRLLIKYASQPATGIPARFSGSGSGTDFTLTISSLEPEDFAVYYCQNGHSFPLTFGQGTKLEIK | 5.7
5 | VH SEQ ID NO 546 / VL SEQ ID NO 326 (antibody, IgG4, V domains shown, humanized 11F2; IgG4 S228P/kappa) VH: QVQLQESGPGLVEPSQTLSLTCTVSGYSITSDSAWSWIRQPPGKKLEWIGYIQYSGSTNYNPSLKSRVTISRDTSKNQFSLKLSSVTAADTAVYYCARSVNYYGNSFAVGYWGQGTSVTVSS VL: EIVLTQSPATLSLSPGERATLSCRASQGISDYLHWYQQKPGEAPRLLIKYTSQPATGIPARFSGSGSGTDFTLTISSLEPEDFGVYYCQNGHSFPLTFGAGTKLELK | 0.81
6 | VH SEQ ID NO 546 / VL SEQ ID NO 382 (antibody, IgG4, V domains shown, humanized 11F2; IgG4 S228P/kappa) VH: QVQLQESGPGLVEPSQTLSLTCTVSGYSITSDSAWSWIRQPPGKKLEWIGYIQYSGSTNYNPSLKSRVTISRDTSKNQFSLKLSSVTAADTAVYYCARSVNYYGNSFAVGYWGQGTSVTVSS VL: EIVLTQSPATLSLSPGERATLSCRASQGLSDYLHWYQQKPGEAPRLLIKYASQPATGIPARFSGSGSGTDFTLTISSLEPEDFAVYYCQNGHSFPLTFGQGTKLEIK | 1.3
7 | VH SEQ ID NO 546 / VL SEQ ID NO 374 (antibody, IgG4, V domains shown, humanized 11F2; IgG4 S228P/kappa) VH: QVQLQESGPGLVEPSQTLSLTCTVSGYSITSDSAWSWIRQPPGKKLEWIGYIQYSGSTNYNPSLKSRVTISRDTSKNQFSLKLSSVTAADTAVYYCARSVNYYGNSFAVGYWGQGTSVTVSS VL: EIVLTQSPATLSLSPGERATLSCRASQGLSDYLAWYQQKPGQAPRLLIKYTSQPATGIPARFSGSGSGTDFTLTISSLEPEDFAVYYCQNGHSFPLTFGQGTKLEIK | 6.8
8 | VH SEQ ID NO 546 / VL SEQ ID NO 422 (antibody, IgG4, V domains shown, humanized 11F2; IgG4 S228P/kappa) VH: QVQLQESGPGLVEPSQTLSLTCTVSGYSITSDSAWSWIRQPPGKKLEWIGYIQYSGSTNYNPSLKSRVTISRDTSKNQFSLKLSSVTAADTAVYYCARSVNYYGNSFAVGYWGQGTSVTVSS VL: EIVLTQSPATLSLSPGERATLSCRASQGVSDYLAWYQQKPGQAPRLLIKYASQPATGIPARFSGSGSGTDFTLTISSLEPEDFAVYYCQQGHSFPLTFGQGTKLEIK | 24
9 | VH SEQ ID NO 546 / VL SEQ ID NO 342 (antibody, IgG4, V domains shown, humanized 11F2; IgG4 S228P/kappa) VH: QVQLQESGPGLVEPSQTLSLTCTVSGYSITSDSAWSWIRQPPGKKLEWIGYIQYSGSTNYNPSLKSRVTISRDTSKNQFSLKLSSVTAADTAVYYCARSVNYYGNSFAVGYWGQGTSVTVSS VL: EIVLTQSPATLSLSPGERATLSCRASQGISDYLHWYQQKPGQAPRLLIKYTSQPATGIPARFSGSGSGRDFTLTISSLEPEDFAVYYCQNGHSFPLTFGAGTKLELK | 1.2
10 | VH SEQ ID NO 546 / VL SEQ ID NO 414 (antibody, IgG4, V domains shown, humanized 11F2; IgG4 S228P/kappa) VH: QVQLQESGPGLVEPSQTLSLTCTVSGYSITSDSAWSWIRQPPGKKLEWIGYIQYSGSTNYNPSLKSRVTISRDTSKNQFSLKLSSVTAADTAVYYCARSVNYYGNSFAVGYWGQGTSVTVSS VL: EIVLTQSPATLSLSPGERATLSCRASQGVSDYLAWYQQKPGQAPRLLIKYASQPATGIPARFSGSGSGTDFTLTISSLEPEDFAVYYCQNGHSFPLTFGQGTKLEIK | 7.1
11 | VH SEQ ID NO 546 / VL SEQ ID NO 358 (antibody, IgG4, V domains shown, humanized 11F2; IgG4 S228P/kappa) VH: QVQLQESGPGLVEPSQTLSLTCTVSGYSITSDSAWSWIRQPPGKKLEWIGYIQYSGSTNYNPSLKSRVTISRDTSKNQFSLKLSSVTAADTAVYYCARSVNYYGNSFAVGYWGQGTSVTVSS VL: EIVLTQSPATLSLSPGERATLSCRASQGISDYLHWYQQKPGQAPRLLIKYTSQPATGIPARFSGSGSGTDFTLTISSLEPEDFAVYYCQNGHSFPLTFGQGTKLEIK | 0.99
12 | VH SEQ ID NO 546 / VL SEQ ID NO 406 (antibody, IgG4, V domains shown, humanized 11F2; IgG4 S228P/kappa) VH: QVQLQESGPGLVEPSQTLSLTCTVSGYSITSDSAWSWIRQPPGKKLEWIGYIQYSGSTNYNPSLKSRVTISRDTSKNQFSLKLSSVTAADTAVYYCARSVNYYGNSFAVGYWGQGTSVTVSS VL: EIVLTQSPATLSLSPGERATLSCRASQGVSDYLAWYQQKPGQAPRLLIKYASQPATGIPARFSGSGSGTDFTLTISSLEPEDFAVYYCQNGHSFPLTFGAGTKLEIK | 6.7
13 | VH SEQ ID NO 546 / VL SEQ ID NO 350 (antibody, IgG4, V domains shown, humanized 11F2; IgG4 S228P/kappa) VH: QVQLQESGPGLVEPSQTLSLTCTVSGYSITSDSAWSWIRQPPGKKLEWIGYIQYSGSTNYNPSLKSRVTISRDTSKNQFSLKLSSVTAADTAVYYCARSVNYYGNSFAVGYWGQGTSVTVSS VL: EIVLTQSPATLSLSPGERATLSCRASQGISDYLHWYQQKPGQAPRLLIKYTSQPATGIPARFSGSGSGTDFTLTISSLEPEDFAVYYCQNGHSFPLTFGAGTKLELK | 0.96
14 | VH SEQ ID NO 546 / VL SEQ ID NO 398 (antibody, IgG4, V domains shown, humanized 11F2; IgG4 S228P/kappa) VH: QVQLQESGPGLVEPSQTLSLTCTVSGYSITSDSAWSWIRQPPGKKLEWIGYIQYSGSTNYNPSLKSRVTISRDTSKNQFSLKLSSVTAADTAVYYCARSVNYYGNSFAVGYWGQGTSVTVSS VL: EIVLTQSPATLSLSPGERATLSCRASQGVSDYLAWYQQKPGEAPRLLIKYTSQPATGIPARFSGSGSGTDFTLTISSLEPEDFAVYYCQNGHSFPLTFGQGTKLEIK | 11

Second part, the binder after the results:

Row | Kd [nM] | Binder
15 | 8 | VH SEQ ID NO 546 / VL SEQ ID NO 438 (antibody, IgG4, V domains shown, humanized 11F2; IgG4 S228P/kappa) VH: QVQLQESGPGLVEPSQTLSLTCTVSGYSITSDSAWSWIRQPPGKKLEWIGYIQYSGSTNYNPSLKSRVTISRDTSKNQFSLKLSSVTAADTAVYYCARSVNYYGNSFAVGYWGQGTSVTVSS VL: EIVLTQSPATLSLSPGERATLSCRASQGVSDYLAWYQQKPGQAPRLLIKYASQPATGIPARFSGSGSGTDFTLTISSLEPEDVAVYYCQNGHSFPLTFGQGTKLEIK
16 | 8.1 | VH SEQ ID NO 546 / VL SEQ ID NO 430 (antibody, IgG4, V domains shown, humanized 11F2; IgG4 S228P/kappa) VH: QVQLQESGPGLVEPSQTLSLTCTVSGYSITSDSAWSWIRQPPGKKLEWIGYIQYSGSTNYNPSLKSRVTISRDTSKNQFSLKLSSVTAADTAVYYCARSVNYYGNSFAVGYWGQGTSVTVSS VL: EIVLTQSPATLSLSPGERATLSCRASQGVSDYLAWYQQKPGQAPRLLIKYASQPATGIPARFSGSGSGTDFTLTISSLEPEDFGVYYCQNGHSFPLTFGQGTKLEIK
17 | 1.1 | VH SEQ ID NO 546 / VL SEQ ID NO 462 (antibody, IgG4, V domains shown, humanized 11F2; IgG4 S228P/kappa) VH: QVQLQESGPGLVEPSQTLSLTCTVSGYSITSDSAWSWIRQPPGKKLEWIGYIQYSGSTNYNPSLKSRVTISRDTSKNQFSLKLSSVTAADTAVYYCARSVNYYGNSFAVGYWGQGTSVTVSS VL: EIVLTQSPATLSLSPGERATLSCRASQGVSDYLHWYQQKPGQAPRLLIKYASQPATGIPARFSGSGSGTDFTLTISSLEPEDFAVYYCQNGHSFPLTFGAGTKLEIK
18 | 10 | VH SEQ ID NO 546 / VL SEQ ID NO 446 (antibody, IgG4, V domains shown, humanized 11F2; IgG4 S228P/kappa) VH: QVQLQESGPGLVEPSQTLSLTCTVSGYSITSDSAWSWIRQPPGKKLEWIGYIQYSGSTNYNPSLKSRVTISRDTSKNQFSLKLSSVTAADTAVYYCARSVNYYGNSFAVGYWGQGTSVTVSS VL: EIVLTQSPATLSLSPGERATLSCRASQGVSDYLAWYQQKPGQAPRLLIKYTSQPATGIPARFSGSGSGTDFTLTISSLEPEDFAVYYCQNGHSFPLTFGQGTKLEIK
19 | 1.2 | VH SEQ ID NO 546 / VL SEQ ID NO 470 (antibody, IgG4, V domains shown, humanized 11F2; IgG4 S228P/kappa) VH: QVQLQESGPGLVEPSQTLSLTCTVSGYSITSDSAWSWIRQPPGKKLEWIGYIQYSGSTNYNPSLKSRVTISRDTSKNQFSLKLSSVTAADTAVYYCARSVNYYGNSFAVGYWGQGTSVTVSS VL: EIVLTQSPATLSLSPGERATLSCRASQGVSDYLHWYQQKPGQAPRLLIKYASQPATGIPARFSGSGSGTDFTLTISSLEPEDFAVYYCQNGHSFPLTFGQGTKLEIK
20 | 1.1 | VH SEQ ID NO 546 / VL SEQ ID NO 454 (antibody, IgG4, V domains shown, humanized 11F2; IgG4 S228P/kappa) VH: QVQLQESGPGLVEPSQTLSLTCTVSGYSITSDSAWSWIRQPPGKKLEWIGYIQYSGSTNYNPSLKSRVTISRDTSKNQFSLKLSSVTAADTAVYYCARSVNYYGNSFAVGYWGQGTSVTVSS VL: EIVLTQSPATLSLSPGERATLSCRASQGVSDYLHWYQQKPGEAPRLLIKYASQPATGIPARFSGSGSGTDFTLTISSLEPEDFAVYYCQNGHSFPLTFGQGTKLEIK
